In patent US20130084291A1:

Columns and labels:
TNF-alpha [1] = assay: Biacore 3000 SPR; Fc fusion loaded into the flow cell, exposed to TNF
TNF-alpha [2] = assay: cell-based or functional assay

Row | KD (TNF-alpha), normalized to TNFR-h(1)Fc wt (fold of wt (normalized)) (TNF-alpha [1]) | IC50 (WEHI Assay), normalized to TNFR-h(1)Fc wt (fold of wt (normalized)) (TNF-alpha [2]) | Substance
1 | 4.4 | 1.1 | D47N S202N TNFR2-h(1)Fc (Fc fusion)
2 | 1.6 | 1.9 | D47N TNFR2-h(1)Fc (Fc fusion)
3 | 2.6 | 1.6 | D47N/E155N TNFR2-h(1)Fc (Fc fusion)
4 | 55 | 3 | D47N/G253N TNFR2-h(1)Fc (Fc fusion)
5 | 3.6 | 0.57 | E155N G253N TNFR2-h(1)Fc (Fc fusion)
6 | 1 | 0.25 | E155N S202N G253N TNFR2-h(1)Fc (Fc fusion)
7 | 1.05 | 0.23 | S202N G253N TNFR2-h(1)Fc (Fc fusion)
8 | 0.33 | 0.29 | T203N P205S TNFR2-h(1)Fc (Fc fusion)
9 | 0.78 | 0.25 | T222N TNFR2-h(1)Fc (Fc fusion)
